Reference: the DeepSol protein solubility set

experiment: soluble on expression in E. coli; label from the status in PepcDB or PDB records

Row | Sequence | soluble on expression in E. coli
1 | MGSDKIHHHHHHMSLPAQLRVLEVVQSLEKGGRTTRFTDTVAGLRAQKIFTVPLCISKPESWVSIPDLEVLHKTAGINWKLVFQIRKKIIKNNINLIHAHCEFSQLYASIAGVTCGIKTVATFHRSDLSKYQPNMVNKLIKLFASHFVAVSHDRLSLLTNNLKLPLNKCHVVHGGSVIEKKPTVTSINKARADLGIPLDQLMLLSIGHLGEIKGHQDTLVALSKFTKTMPALHLYIAGDGAAQEKQKLTELVNKLQINENVTFLGQINNAFSWLEACDIFIQPSVEEAFGLVFVEAGAKAKPVIATTVGGIKEIIVSKETGLLVLPSSPKAVEHALAILINSPPLRQQYGENGYKRITEHFSLTNMVNKYTDIFNQAVN | not soluble
2 | MSLEAKECKVQDILTENKKFIIPSYQRPYSWTVDNAEQLIDDIYKSSQSEENEYFIGSMICINKGQNQYEVVDGQQRLTTLSIIVSELKKIIPIQGIKDDLQKRVLPIDVYSDETDEPRLIVRKKEYDLYKYYILQDSKDYKPEKPSDTELVFISNAETIRDYLLRLSVDELKLLAKYILQNVYIVFVQTDDFASSFRLFNVLNSRGLPLSNADLLKNALFESASTHNKKSEQIESAWSQIEDMVGVRRLDKFLTLHKLSEKKDRDRVLQKGFEAFIENLQQQFDGDAIAMSLMLVNSAKNYTKILENDFEHSSIRRKIASLSNLGVDEWIPPVMAFMNRMARTEDFNLDDFSQFITAFEKVYMHGWLKKQIKSQREMVCYSALVAINNDMSFDSVINQINQHADNSGFIAALDEDLYEPRPNQVNLIKAILLRLDMEQQDESVIKTYTGRITIEHILPQALVNEYWINRFQPQEHVYWLHKIGNLTLISGSKNSEAQHYDFIKKKSIYEKLNSKSSFDLTKDVCNSSEWGLAELKMRHEKMKTQLKKLWLVEGHHHHHH | soluble
3 | MKKGTPLPHSDELDAGNVLAVENLNIAFMQDQQKIAAVRNLSFSLQRGETLAIVGESGSGKSVTALALMRLLEQAGGLVQCDKMLLQRRSREVIELSEQNAAQMRHVRGADMAMIFQEPMTSLNPVFTVGEQIAESIRLHQNASREEAMVEAKRMLDQVRIPEAQTILSRYPHQLSGGMRQRVMIAMALSCRPAVLIADEPTTALDVTIQAQILQLIKVLQKEMSMGVIFITHDMGVVAEIADRVLVMYQGEAVETGTVEQIFHAPQHPYTRALLAAVPQLGAMKGLDYPRRFPLISLEHPAKQAPPIEQKTVVDGEPVLRVRNLVTRFPLRSGLLNRVTREVHAVEKVSFDLWPGETLSLVGESGSGKSTTGRALLRLVESQGGEIIFNGQRIDTLSPGKLQALRRDIQFIFQDPYASLDPRQTIGDSIIEPLRVHGLLPGKDAAARVAWLLERVGLLPEHAWRYPHEFSGGQRQRICIARALALNPKVIIADEAVSALDVSIRGQIINLLLDLQRDFGIAYLFISHDMAVVERISHRVAVMYLGQIVEIGPRRAVFENPQHPYTRKLLAAVPVAEPSRQRPQRVLLSDDLPSNIHLRGEEVAAVSLQCVGPGHYVAQPQSEYAFMRR | not soluble
4 | MGSDKIHHHHHHMDALEIHRFLKGKIRTALPVEKVDRETLSLLYTPGVADVARACAEDPEKTYVYTSRWNTVAVVSDGSAVLGLGNIGPYGALPVMEGKAFLFKAFADIDAFPICLSESEEEKIISIVKSLEPSFGGINLEDIGAPKCFRILQRLSEEMNIPVFHDDQQGTAVVVSAAFLNALKLTEKKIEEVKVVVNGIGAAGYNIVKFLLDLGVKNVVAVDRKGILNENDPETCLNEYHLEIARITNPERLSGDLETALEGADFFIGVSRGNILKPEWIKKMSRKPVIFALANPVPEIDPELAREAGAFIVATGRSDHPNQVNNLLAFPGIMKGAVEKRSKITKNMLLSAVEAIARSCEPEPERIIPEAFDMKVHLNVYTAVKGSA | not soluble
5 | MGSDKIHHHHHHMPGSQQSLPLAMVRGQALNSMPVDLFIPPEALEVFLETFEGPLDLLLYLIRKQKLDVVDLPIQQITQQYLLYIEILTEARIELAADYLVMAATLAEIKSRLLLPKMASEDDEEEDPRVVLIRQLKAYEVIKQAAVDIDTLPRIERDVFQASVSAAPDIKPITVPPEVSLVDIARAFGEVLKRIDANEDHHVKREHLSTRERMSQILAKLSSTEYIGFECLFDVSEGRAGVVVSFLALMELVKELLVELVQNEPFSPIYVKAY | not soluble
6 | MSFITAFRERVFIASGDLIRTFRISEETELKNFISWSKINPERIQKPSFDIEKELKAVEKRVILCLAHSNVLTTHGRRLVAVGTNEKQIHVFEYFVNDKGDIVTAEHIVTSVVPKAPTAIVFDKEDAYVVVGDRAGDVHRFSVLNGSAIEMAGAISMILDVAFSPDGKRLLMADRDEKVRALRYPATSVIDSFFLGHTEYVKTLAVQDNDSLWSSGGDKNLYNWSIAKCSAPRRTLDLSQFDAPIRKISINLQHKKIAVIFEKIETVVIVDLNQESLQTTSVSIVGESQCLDIASTKDYFAVLGRSTVHLIDLNNMEQKFVPIDEELTITLTSTNDAIDNLFKNVTHNNQQEYEKRKADKFEQIEKKKRRLNEDINGDDGEGPGPSNS | not soluble
7 | MREKIDALTQNLNRTIVGKTEAIRLVLVALIGGGHALLEDVPGVGKTLLAKSLARSLDGTFQRLQCTPDLLPTDITGTNIWNPKSGEFSFMPGPVFANVVLADEINRATPRTQSALLEVMEEQQVTVDGVSRTVPHPFFVIATQNPVEYQGTFPLPEAQMDRFMLSLSLGYPGVDEELEMLQNLQHGIKVGDLQPCLTLAEVAELRDICSQVKVETVLQQYILELVRATRQDEEITLGVSPRGTVALHKATQALAFLLGRDYAIPDDVKFLAPHVLCHRLIPRGGRSARSIVDRLLRSLPIPLEHHHHHH | soluble
8 | MAHHHHHHMVFHLNIFNKGKRQNLVSAYLNHFKKSYFSGVTSGSDCVNKSEVSSDNNNNNNNNNNKIAHNFFSKKYQRNFENNNLSENQENNKNIIYSGSNIFKNIYNTEMMSNNNTVDVNMMDNNPAARLEELRTIMKKNKIDVYILINSDEHNSEIINEKDKKIVKITNYSGADGILIVTKDKPILYVNALYELQAMNELDQNLFTLRISRIDNRDEIFETISSLEFNTIAFDGKNTSVVFYEKLRKALLNAYPKKKIVEKIIYNNNFDDVNKKDDENVLNFLVLEKSLVEIKDYPVNNKTLYIHDRKYNGACAGEKIDKLKQSLMYDIKNVDNLLLSELDEIAYLLNLRGYDYQYSPLFYSYLLFQFDREEQDFSKIVFFTTVKNLPADVKNLLEINKVIVKEYEEIVPYLRDVVIPSIPKHNDDNPDFKKYDISLSPYINLMIYKLFDRKNVLLQNSPVVKMKAVKNDVEIDNMKQAHILDGLALLQFFHWCEQKRKTKELFNETEMSLRHKVDYFRSTKKNFIFPSFSTISASGPNAAVIHYECTDKTNATIKPAIYLLDSGGQYLHGTTDVTRTTHFGEPTAEEKRIYTLVLKGHLRLRKVIFASYTNSSALDFIARENLFNNFMDYNHGTGHGVGLTLNVHEGGCSIGPVGGAPLKKNMVLSNEPGYYMKDKFGVRIENMQYVISKEITDTTEYLSFDDLTMYPYEK | not soluble
9 | AAGTVFTTVEDLGSKILLTCSLNDSATEVTGHRWLKGGVVLKEDALPGQKTEFKVDSDDQWGEYSCVFLPEPMGTANIQLHGPPRVKAVKSSEHINEGETAMLVCKSESVPPVTDWAWYKITDSEDKALMNGSESRFFVSSSQGRSELHIENLNMEADPGQYRCNGTSSKGSDQAIITLRVRSH | soluble
10 | MGSDKIHHHHHHMEFTKKSKLKNMYVNMNVARMLSKINEYKGRQLLYKKQPKEILENLEKKSLVDCSESTYIGNQRDSSNFNLEKLISNEVTPRSREELSIVEYRDVVKTINSAYESIPISSQTILELHGYLYKFSSTRGGSYKSDNDFIEHNLKPSEFISTDSSVNKVEKAVEEICEAYNTLIEEDEIDILILISAFVLDFILIHPFKEGNIKMARVLILLLLNKNGYEVGRYISLGKIFDDSSYEYYSNLNYLKASIGSEKADMNAWIEYFLETILTAYEKLDDSLNISDKKRQTKTSRIEKIINSTLGYFTKEDIRDLCPDIPEPTINRVFNNLRKQDKIEVVARGRSAKWKKKY | not soluble
11 | MGSDKIHHHHHHMETLRILHTNDLHSHFEHFPKIRRYLKQVQETAAADQVLTFDAGDFMDRSHPLSDATEGQANIRLMNDFHYDAITIGNNEGISNPHAVLERLFDHANFPVLLSNLREEDESWPAWANDYKIIKTKKGTRLALVGLTAAYPMTYGPNHWQIKMLGETMDRVLPEIAGQYDCLILLTHVGLRMDQWLAKHYPEIDLIVGGHSHTLLEKGVKEGRTWITQTDKWGNYVGDISLEIGDDHKIISIKPTTVPVADLPSQAGDEAEIAALYEEGQKMLQSRHVADLPEKFKDDKLAAIDVSLEAIADFAGTDLAMLSTGLFLTPFKGGLINQFDLQHALPHPMHVVRTTLLGRDLWRLVMEVEKNRHFLENYPLVGMSFRGKIFGQVYYRGIKYDPMTRNVFVNGQLLDPAEEYRIAVLDHYVLIPFFPTLAIVGENEFLFPQFLREVVGDYLGRKYPMKKEGE | not soluble
12 | MRTLKELERELQPRQHLWYFEYYTGNNVGLFMKMNRVIYSGQSDIQRIDIFENPDLGVVFALDGITMTTEKDEFMYHEMLAHVPMFLHPNPKKVLIIGGGDGGTLREVLKHDSVEKAILCEVDGLVIEAARKYLKQTSCGFDDPRAEIVIANGAEYVRKFKNEFDVIIIDSTDPTAGQGGHLFTEEFYQACYDALKEDGVFSAETEDPFYDIGWFKLAYRRISKVFPITRVYLGFMTTYPSGMWSYTFASKGIDPIKDFDPEKVRKFNKELKYYNEEVHVASFALPNFVKKELGLM | soluble
13 | MDGSQGSTDYGDHVVLRYGGTREMVPLIRHEQMLDMLMERARQIVQGFGNLDTRNMYLFRHEYNSPTLLYPITSASQITSGSILEIILVDRTEAAVIPHVVEPESYMRPTFCDFCGEMLTGLMRQGVKCKNCNGNFHKRCSNAARNNCGAPGAPGAQPSRPPILPPIPTTPTGFPVAALSTPTGLPHTLIEHSYRQFTVCKVCDHLLVGLVKQGLKCRDCGVNVHRKCAMELASNCVLSENAISRVNFTDPEGPGSSSSDNIPLFRLPGQVGTRATEKKKLEGWMMHFILSDPERRLKHYWMMQSNAIHLYNEYSEGIGVNPNRVYRIIPLAEITSVVQNNGKSVLAKHPPHCFEIRTTTNTVFCVGEDYHAFSGGPPKKIPRSMSVRPSSNTTMWFQFIKESLQPPSRNEDNAEQALEFANLYQVLSDKTLGSGQFGTVYSAIQRHSGKEVAVKVISKERFSKKGSGAESMRAEVAILQQTCHPGIVCLEFMCETKDKIFVVMEKMNGDMLEMILSQELGRLNSRATKFLLVQILCALKYLHDQGIAHCDLKPENVLLSDMGSNFPQTKICDFGYARFIPESQFRKTVVGTPAYLPPEVLQRKGYNKSLDMWSVGVIIYVTLSGTFPFNEGEEISEQIQNASFMFPTEPWSEVEPLAVDLIQKLLKVEIEARMSIEQCLDHGWLKGEQLYRDLRDLEVRLNTPRYLTSPQDDILYGTLVNP | not soluble
14 | MEEEHEEESHLSQSDTVGSAIVEDGPGKEYEIYIKNEELVDKLKLLNYEDGFLKLGVVYKPILKHYFVKSKNVGEQFFLFTSLAAWLIKKSGDESYNMPQEFDDPNSTLANIMAAAKNKGIATDFTAAKLKSGAGENVIFILNSLADASLVHVGFQWQKMIPPKEEDEDTAVDEQDEDDDNDDIVEEPMNFLDDDDDDNVIEIDLKAQGLATESKNPLQSVLQSNTDAITWKQEVERVAPQLKITLKQDAKDWRLHLEQMNSMHKNVEQKVGNVGPYLDNMSKDIAKALERIASREKSLNSQLASMMSKFRRATDTRAELREKYKAASVGVSSRTETLDRISDDIEQLKQQIEEQGAKSSDGAPLVKIKQAVSKLEEELQTMNVQIGVFEQSILNTYLRDHFNFSANLLNIM | soluble
